The results in this text go back to patent WO2019054460A1 (dated 2019).

The target of test [1] is T1, human RAMP2 co-expressed with human CRLR on CHO-K1 cells (hCR2-CHOK1) (human, UniProt O60895 43-175; Q16602 23-461).
T1 construct: whole, on cells; The antibodies are directed to RAMP2; also called hCRLR / hRAMP2-expressing CHO-K1 cells; membrane surface RAMP2 protein
Kind of test: Cell ELISA on fixed hCR2-CHOK1 cells, 1/2 serial dilution from 67.5 nM, GraphPad Prism 7.

Test [2] addresses RAMP2 expressed on the cell surface of HUVEC (human umbilical vein endothelial cells) (human) (UniProt O60895). Kind of test: cell-based or functional assay.
Test [3] deals with T1, human RAMP2 co-expressed with human …. The test is described as follows: cell-based or functional assay.
For test [4] the target is unchanged. Kind of test: Cell ELISA on fixed hCR2-CHOK1 cells, 1/10 serial dilution from 67 nM, anti-human IgG Fc-HRP, GraphPad Prism 7. On the technique in general: An ELISA detects its analyte on a solid surface through an enzyme-linked reagent.
Test [5] has as its target RAMP2 expressed on the cell surface of HUVEC (human umbilical vein endothelial cells) (human, UniProt O60895 43-175). Kind of test: cell-based or functional assay.

RAMP2 expressed on the cell surface of HUVEC (human umbilical vein endothelial cells) (human), sequence (O60895 43-175): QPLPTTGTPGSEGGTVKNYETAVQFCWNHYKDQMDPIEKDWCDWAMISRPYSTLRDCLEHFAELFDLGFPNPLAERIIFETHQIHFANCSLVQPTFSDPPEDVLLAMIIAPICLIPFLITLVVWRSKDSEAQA
RAMP2 expressed on the cell surface of HUVEC (human umbilical vein endothelial cells), sequence (O60895 43-175): as above
T1 sequence (O60895 43-175, chain 1 of 2): as the sequence (O60895 43-175) above
T1 sequence (Q16602 23-461, chain 2 of 2): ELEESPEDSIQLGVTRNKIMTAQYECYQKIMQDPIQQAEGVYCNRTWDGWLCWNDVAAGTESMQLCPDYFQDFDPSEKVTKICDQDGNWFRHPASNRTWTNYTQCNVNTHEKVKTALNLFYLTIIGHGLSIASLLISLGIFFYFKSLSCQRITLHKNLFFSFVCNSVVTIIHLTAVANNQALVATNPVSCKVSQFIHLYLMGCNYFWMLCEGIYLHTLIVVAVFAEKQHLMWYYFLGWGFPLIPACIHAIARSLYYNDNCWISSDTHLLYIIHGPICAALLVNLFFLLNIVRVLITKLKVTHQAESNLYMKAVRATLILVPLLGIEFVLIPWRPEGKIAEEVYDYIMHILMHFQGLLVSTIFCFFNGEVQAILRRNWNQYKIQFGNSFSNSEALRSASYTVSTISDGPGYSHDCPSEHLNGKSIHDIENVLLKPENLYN

B1: 25H4-4F9 antibody (antibody, V domains shown)
VH: EVQLQQSGPELVKPGASVKISCKASGYSFTGYFMNWVKQSQGKSLESIGRNNPYNGDSIYNQKFKGKATLTVDKSSNTAHMELRSLTSEDSAVYYCARLMIFDAYYAMDYWGQGTSVTVSS
VL: DIQMTQTTSSLSASLGDRVTISCRASQDIRNYLNWYQQKPDGTVKLLIYYTSRLHSGVPSRFSGSGSGTDYSLTISNLEQEDIATYFCQQDSKHPWTFGGGTKLEIK
B1: a half-maximal response in test [1] (EC50) required 0.4 nM. In test [2], this molecule came in with an HUVEC proliferation upon AM addition, 10 nM antibody (OD450, % of no antibody) of 30% and an IC50 values for inhibition of HUVEC proliferation of 1.2 nM. Further, the “IC50 values for cAMP inhibition” value in test [3] is 0.15 nM.

B2: h25H4-4F9v2 (antibody, V domains shown)
VH: EVQLVQSGAEVKKPGATVKISCKASGYSFTGYFMNWVKQAPGKGLESIGRNNPYNGDSIYNQKFKGRATLTVDTSTDTAYMELSSLRSEDTAVYYCARLMIFDAYYAMDYWGQGTTVTVSS
VL: DIQMTQSTSSLSASLGDRVTITCRASQDIRNYLNWYQQKPGKTVKLLIYYTSRLHSGVPSRFSGSGSGTDYTLTISSLQQEDIATYFCQQDSKHPWTFGQGTKLEIK
As to B2, the EC50 in test [4] was determined as 1.05 nM. In test [5], the “HUVEC growth inhibition rate (IC50)” value came out at 10.9 nM. In addition, the “IC50 values for cAMP inhibition” value in test [3] is 0.14 nM.

B3: h85H7-2B11v2 (antibody, V domains shown)
VH: QVQLVQSGAEVKKPGASVKMSCKASGYSFSGYFMNWVKQAPGQGLEWIGRINPYNGDTFYNQKFKGRATLTVDTSTSTTYMELSSLRSEDTALYYCARLGIYDVYHYVMENWGQGTTVTVSS
VL: DIQMTQSTSSLSASLGDRVTITCRASQDIRNYLNWYQQKPGKTVKLLIYYTSRLHSGVPSRFSGSGSGTDYTLTISSLQQEDIATYFCQQDSKNPWTFGQGTKLEIK
For the molecule B3, the EC50 in test [4] stood at 0.24 nM. Besides, the “HUVEC growth inhibition rate (IC50)” value in test [5] turned out to be 9.5 nM. Further, the “IC50 values for cAMP inhibition” value in test [3] came to 0.11 nM.

B4: h25H4-4F9v1 (antibody, V domains shown)
VH: EVQLVQSGPEVVKPGATVKISCKASGYSFTGYFMNWVKQAQGKSLESIGRNNPYNGDSIYNQKFKGKATLTVDKSTNTAYMELSSLRSEDTAVYYCARLMIFDAYYAMDYWGQGTTVTVSS
VL: DIQMTQSTSSLSASLGDRVTITCRASQDIRNYLNWYQQKPGKTVKLLIYYTSRLHSGVPSRFSGSGSGTDYTLTISSLQQEDIATYFCQQDSKHPWTFGQGTKLEIK
Take B4: in test [4], the EC50 stood at 0.73 nM. For the same molecule, in test [5], the “HUVEC growth inhibition rate (IC50)” value turned out to be 16 nM. Moreover, the “IC50 values for cAMP inhibition” value in test [3] came out at 0.17 nM.

B5: 33H4-1G3 antibody (antibody, V domains shown)
VH: EVQLQQSGPELVKPGASVKMSCKASGYSFSGYFMNWVKQSHGKSLEWIGRINPYNGDTLYNQKFKGKATLTVDKSSNTIYMELRSLTSEDSALYYCARLGIYDVYHYVMENWGQGTSVTVSS
VL: DIQMTQTTSSLSASLGDRVTISCRASQDIRNYLNWYQQKPDGTVKLLIYYTSRLHSGVPSRFSGSGSGTDYSLTISNLEQEDIATYFCQQDSKNPWTFGGGTKLEIK
Consider B5, for which the EC50 in test [1] stood at 0.3 nM. In test [2], this molecule displayed an HUVEC proliferation upon AM addition, 10 nM antibody (OD450, % of no antibody) of 30% and an IC50 values for inhibition of HUVEC proliferation of 1.6 nM. Moreover, the “IC50 values for cAMP inhibition” value in test [3] worked out at 0.045 nM.

B6: h85H7-2B11v1 (antibody, V domains shown)
VH: EVQLVQSGPEVVKPGASVKMSCKASGYSFSGYFMNWVKQAHGQSLEWIGRINPYNGDTFYNQKFKGKATLTVDKSTSTTYMELSSLRSEDTALYYCARLGIYDVYHYVMENWGQGTTVTVSS
VL: DIQMTQSTSSLSASLGDRVTITCRASQDIRNYLNWYQQKPGKTVKLLIYYTSRLHSGVPSRFSGSGSGTDYTLTISSLQQEDIATYFCQQDSKNPWTFGQGTKLEIK
B6 yielded an EC50 in test [4] of 0.18 nM. Besides, the “HUVEC growth inhibition rate (IC50)” value in test [5] turned out to be 5.1 nM. Besides, in test [3], the “IC50 values for cAMP inhibition” value stood at 0.07 nM.

B7: 85H7-2B11 antibody (antibody, V domains shown)
VH: EVQLQQSGPELVKPGASVKMSCKASGYSFSGYFMNWVKQSHGKSLEWIGRINPYNGDTFYNQKFKGKATLTVDKSSSTTHMELRSLTSEDSALYYCARLGIYDVYHYVMENWGQGTSVTVSS
VL: DIQMTQTTSSLSASLGDRVTISCRASQDIRNYLNWYQQKPDGTVKLLIYYTSRLHSGVPSRFSGSGSGTDYSLTISNLEQEDIATYFCQQDSKNPWTFGGGTKLEIK
The molecule B7 returned an EC50 in test [1] of 0.14 nM. In test [2], the HUVEC proliferation upon AM addition, 10 nM antibody (OD450, % of no antibody) came out at 30% and the IC50 values for inhibition of HUVEC proliferation came out at 0.8 nM. Besides, in test [3], the “IC50 values for cAMP inhibition” value came to 0.03 nM.

B8: h25H4-4F9v3 (antibody, V domains shown)
VH: EVQLVQSGAEVKKPGATVKISCKASGYSFTGYFMNWVKQAPGKGLESIGRNNPYNGDSIYNQKFKGRATLTVDTSTDTAYMELSSLRSEDTAVYYCARLMIFDAYYAMDYWGQGTTVTVSS
VL: DIQMTQSPSSLSASVGDRVTITCRASQDIRNYLNWYQQKPGKAVKLLIYYTSRLHSGVPSRFSGSGSGTDYTLTISSLQPEDIATYFCQQDSKHPWTFGQGTKLEIK
B8 came in with an EC50 in test [4] of 0.83 nM. For the same molecule, the “IC50 values for cAMP inhibition” value in test [3] came to 0.26 nM.

B9: h25H4-4F9v6 (antibody, V domains shown)
VH: EVQLVQSGAEVKKPGATVKISCKVSGYTFTGYFMNWVQQAPGKGLESMGRNNPYNGDSIYAEKFQGRVTITADTSTDTAYMELSSLRSEDTAVYYCARLMIFDAYYAMDYWGQGTTVTVSS
VL: DIQMTQSPSSLSASVGDRVTITCQASQDIRNYLNWYQQKPGKAVKLLIYYTSRLHSGVPSRFSGSGSGTDFTFTISSLQPEDIATYYCQQDSKHPWTFGQGTKLEIK
Take B9: in test [4], the EC50 turned out to be 3.19 nM. Besides, in test [3], the “IC50 values for cAMP inhibition” value worked out at 1.35 nM.

B10: h25H4-4F9v5 (antibody, V domains shown)
VH: EVQLVQSGAEVKKPGATVKISCKVSGYSFTGYFMNWVQQAPGKGLESIGRNNPYNGDSIYNEKFQGRVTITADTSTDTAYMELSSLRSEDTAVYYCARLMIFDAYYAMDYWGQGTTVTVSS
VL: DIQMTQSPSSLSASVGDRVTITCQASQDIRNYLNWYQQKPGKAVKLLIYYTSRLHSGVPSRFSGSGSGTDFTFTISSLQPEDIATYYCQQDSKHPWTFGQGTKLEIK
Molecule B10 returned an EC50 in test [4] of 2.32 nM. Besides, the “IC50 values for cAMP inhibition” value in test [3] was 0.5 nM.

B11: h25H4-4F9v8 (antibody, V domains shown)
VH: EVQLVQSGAEVKKPGATVKISCKVSGYTFTGYFMNWVQQAPGKGLEWMGRNNPYNGDSIYAEKFQGRVTITADTSTDTAYMELSSLRSEDTAVYYCARLMIFDAYYAMDYWGQGTTVTVSS
VL: DIQMTQSPSSLSASVGDRVTITCQASQDIRNYLNWYQQKPGKAPKLLIYYTSRLETGVPSRFSGSGSGTDFTFTISSLQPEDIATYYCQQDSKHPWTFGQGTKLEIK
Take B11: the response in test [4] was half-maximal at 3.03 nM (EC50). Moreover, in test [3], the “IC50 values for cAMP inhibition” value is 1.07 nM.

B12: h25H4-4F9v4 (antibody, V domains shown)
VH: EVQLVQSGAEVKKPGATVKISCKVSGYSFTGYFMNWVQQAPGKGLESIGRNNPYNGDSIYNEKFQGRVTITADTSTDTAYMELSSLRSEDTAVYYCARLMIFDAYYAMDYWGQGTTVTVSS
VL: DIQMTQSPSSLSASVGDRVTITCRASQDIRNYLNWYQQKPGKAVKLLIYYTSRLHSGVPSRFSGSGSGTDYTLTISSLQPEDIATYFCQQDSKHPWTFGQGTKLEIK
Turning to B12, the EC50 in test [4] came out at 1.83 nM. Also, the “IC50 values for cAMP inhibition” value in test [3] worked out at 0.17 nM.

B13: h85H7-2B11v3 (antibody, V domains shown)
VH: QVQLVQSGAEVKKPGASVKMSCKASGYSFSGYFMNWVKQAPGQGLEWIGRINPYNGDTFYNQKFKGRATLTVDTSTSTTYMELSSLRSEDTALYYCARLGIYDVYHYVMENWGQGTTVTVSS
VL: DIQMTQSPSSLSASVGDRVTITCRASQDIRNYLNWYQQKPGKAVKLLIYYTSRLHSGVPSRFSGSGSGTDYTLTISSLQPEDIATYFCQQDSKNPWTFGQGTKLEIK
With B13, in test [4], a half-maximal effect (EC50) was put at 0.23 nM. For the same molecule, the “HUVEC growth inhibition rate (IC50)” value in test [5] stood at 1.5 nM. Also, the “IC50 values for cAMP inhibition” value in test [3] stood at 0.08 nM.

A word on the EC50: it is the concentration that produces a half-maximal response. A low value points to a more potent agent.
